Assay results taken from patent publication US20250075192.

Biological target: T1, Wild type RepD from Staphylococcus aureus, as oriD DNA-RepD adduct
T1 chain: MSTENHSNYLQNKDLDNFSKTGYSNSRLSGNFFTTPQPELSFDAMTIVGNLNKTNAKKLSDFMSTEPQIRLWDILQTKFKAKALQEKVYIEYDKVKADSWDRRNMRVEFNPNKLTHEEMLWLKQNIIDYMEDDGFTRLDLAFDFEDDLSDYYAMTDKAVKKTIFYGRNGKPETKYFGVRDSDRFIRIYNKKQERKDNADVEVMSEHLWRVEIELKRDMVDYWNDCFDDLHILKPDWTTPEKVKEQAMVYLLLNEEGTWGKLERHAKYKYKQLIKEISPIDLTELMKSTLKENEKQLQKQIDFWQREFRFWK

B1: PcrA-DM1, a double cysteine mutant of PcrA, stochastically labeled with a mixture of donor and acceptor fluorophores (protein)
chain: MNFLSEQLLAHLNKEQQEAVRTTEGPLLIMAGAGSGKTRVLTHRIAYLMAEKHVAPWNILAITFTNKAAREMRERVQSLLGGAAEDVWISTFHSMAVRILRRDIDRIGINRNFSILDPTDQLSVMKTILKEKNIDPKKFEPRTILGTISAAKNELLPPEQFAKRASTYYEKVVSDVYQEYQQRLLRCHSLDFDDLIMTTIQLFDRVPDVLHYYQYKFQYIHIDEYQDTNRAQYTLVKKLAERFQNIAAVGDADQSIYRWRGADIQNILSFERDYPNAKVILLEQNYRSTKRILQAANEVIEHNVNRKPKRIWTENPEGKPILYYEAMNEADEAQFVAGRIREAVERGERRYRDFAVLYRTNAQSRVMEEMLLKANIPYQIVGGLKFYDRKEIKDILAYLRVIANPDDDCSLLRIINVPKRGIGASTIDKLVRYAADHELSLFEALGELEMIGLGAKAAGALAAFRSQLEQWTQLQEYVSVTELVEEVLDKSGYREMLKAERTIEAQSRLENLDEFLSVTKHFENVSDDKSLIAFLTDLALISDLDELDGTEQAAEGDAVMLMTLHAAKGLEFPVVFLIGMEEGIFPHNRSLEDDDEMEEERRLAYVGITRAEEELVLTSAQMRTLFGNIQMDPPSRFLNEIPAHLLETASRRQAGASRPAVSRPQASGAVGSWKVGDRANHRKWGIGTVVSVRGGGDDQELDIAFPSPIGIKRLLAKFAPIEKV
For B1, the “EFRET distribution of dual labeled PcrA-DM1 (smFRET, intramolecular conformation of PcrA)” value was “the presence of RepD indeed biases PcrA toward the closed high EFRET conformation”.
